According to the supplement of paper PMC9170038:

System: MS2 coat protein
Assay: apparent KD of MS2 coat protein; higher = weaker reporter binding
Conditions: Eterna round: R107
Method in brief: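 Designed RNA switches were made by on-chip transcription from Illumina sequencing clusters and then titrated with SNAP-549-labelled MS2 coat protein. Twofold steps ran from 0.7 or 1.5 nM to 3 µM, each lasting 0.8–1.5 h early and 10–20 min late, in 100 mM Tris-HCl pH 7.5, 80 mM KCl, 4 mM MgCl2, without or with constant ligand. Apparent KD is the per-design median of normalised cluster binding-curve fits.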

[1] = input ligand: theophylline 20 uM
[2] = input ligand: theophylline 2 mM
[3] = input ligand: tryptophan 2.4 mM

Sequence | apparent KD of MS2 coat protein (input ligand: arginine 13.2 mM) [µM] | apparent KD of MS2 coat protein (input ligand: none) [µM] | apparent KD of MS2 coat protein [1] [µM] | apparent KD of MS2 coat protein [2] [µM] | apparent KD of MS2 coat protein [3] [µM]
AAAGAUCGGAAACGAUCGGCGGCUUGGGCGCGAGGACCGGUACGGCCGCCACUCGGGCAACAUGAGGAUCACCCAUGUUCCUCAU [ETA NP+V+V2 #17] | 0.0755 | 0.146 | 0.245 | 0.18 | 0.189
UGUAUGUGAUCUGAUACCAGUCCAACUGGUAAAACUUGAGGAUCACCCAAGUAAAAUUGGGACCCUUGGCAGCAGAUCGCAUACU | 0.126 | 0.371 | 0.36 | 0.0817 | 0.371
GGUUACUCUACGGCCGCCACUGGGCAUGUAAAUAACAUGAGGAUCACCCAUGUGGAUUAAAAUUACAGGACCGGGUAGUGUAACC [Tryptophan B 21] | 0.0866 | 0.3 | 0.239 | 0.345 | 0.0361
UCACGGCACUGAAGGAGCGAGUUGACAAACAUGAGGAUCACCCAUGUUAUGGGUUGUUAAUCUCAGGUAGGUCGCAGUUGUCGUG [Same State Arginine B GF 21] | 0.163 | 0.379 | 0.418 | 0.458 | 0.388
ACAUGAGACAUGGAUACCAGCGACAUGAGGAUCACCCAUGUAUGAGGAUCACCCAUGUUAUGCCCUUGGCAGCCACAAACAUGAG [.PLMULLINP] | 0.0198 | 0.0139 | 0.0308 | 0.147 | 0.0152
UACAUACAUGAGGAUCACCCAUGUUGCGAUACCAGCGAAAGAGACCGCCCUUGGCAGCGCUCAUUUAGUUCCAUUCUUGAUCGAA [theeternabot_sameState_MS2_Theo_A_4] | 0.0145 |  | 0.0237 |  | 0.0147
CGACACAUGAGGAUCACCCAUGUAAUGACGCGAGGACCGGUACGGCCGCCACUCGCAUGCCAAUGAGCGCAUGCGGCCUGGGUAU [Exclusion Tryp A GF6] | 0.0175 |  | 0.0236 | 0.0195 | 
CGGUCGGUCGGCCGGUGAUUAUGGGAUGAAGGAGCGUGGGAAGCUACAGGUAGGUCGCAUCCGAAACAUCACGAUCACGGAUGUU [SSArg A #26Alt-Ms2 Mod] | 0.0463 |  | 0.134 | 0.101 | 0.0724
AUACAUGAGGAUCACCCAUGUGAUGGCCGGCGAGGACCGGUACGGCCGCCACUCGUGAUCCGUCCUGAGAGCAAAGCCCUCAACA [Lequcele] | 0.0801 |  | 0.45 | 0.199 | 
CAAUAUAUAUGAAGGAGCGUCGAAAAUGGGUAAACAUGAGGAUCACCCAUGUAAAGGGAACGACAGGUAGGUCGCAUAUGUAUUG [AstromonsSSArgB#9] | 0.171 | 0.165 | 0.195 | 0.261 | 0.19
GGAGUAGGAAACUAUUCCAAUCCUCGUGAACGAGGACCGGUACGGCCGCCACUCGAUAAAUAAAUACAUGAGGAUCACCCAUGUA [Ex Tryptophan A 22] | 0.02 |  | 0.0289 | 0.0341 | 
GAGCUGAUGUAGGCCGGAUAUCCGGGAGAUACCAGUACAGAAAUGUACCCUUGGCAGCUCUUUCCUACAUGAGGAUCACCCAUGU [Ex Theophylline A 28] | 0.017 |  | 0.0217 |  | 0.0178
UCUUACUUGGUAGAUACCAGCGUGUUAUCUUUCUUUUGACAUGAGGAUCACCCAUGUAUAUGCCCUUGGCAGCUGCGUAGUGUGU [#03 Same State - Theophylline B] | 0.0216 |  | 0.0357 |  | 0.0274
CGACUACAGCGUGAUACCAGUGACAGAUACCAGUCUAGACAUGAGGAUCACCCAUGUACGCGCCCUUGGCAGCACACUAGAUCGA [#29 Same State - Theophylline B] | 0.0367 |  | 0.128 |  | 0.0832
UCGCAUUGCUCAGAUACCAGACAUGAGGAUCACCCAUGUACCAAGGUACCCGAAAGGAAUGUCCCUUGGCAGCUGAGCAAUGCGU [MAT - Exclusion Theophlline B - Mod of Eli - D19] | 0.0105 |  | 0.014 |  | 0.0104
GCACGACAUGAGGAUCACCCAUGUGCAGAUACCAGUAGGAUAUCCUACCCUUGGCAGCUGAGUAGAUCUGGAGGACUAUAGGUAA [Same State Theophylline A GF9] | 0.0155 | 0.0179 | 0.023 | 0.0212 | 0.0183
